# Molecular target: Mus musculus XRCC2 full length (Mus musculus) (UniProt Q9CX47)
# Test: two-hybrid; same mated yeast; liquid β-galactosidase assay with ONPG as substrate, in triplicate, constructs in both the GAL4 activating and DNA binding domains
# UniProt Q9CX47, sequence (Q9CX47 whole entry, the tested form may be a part): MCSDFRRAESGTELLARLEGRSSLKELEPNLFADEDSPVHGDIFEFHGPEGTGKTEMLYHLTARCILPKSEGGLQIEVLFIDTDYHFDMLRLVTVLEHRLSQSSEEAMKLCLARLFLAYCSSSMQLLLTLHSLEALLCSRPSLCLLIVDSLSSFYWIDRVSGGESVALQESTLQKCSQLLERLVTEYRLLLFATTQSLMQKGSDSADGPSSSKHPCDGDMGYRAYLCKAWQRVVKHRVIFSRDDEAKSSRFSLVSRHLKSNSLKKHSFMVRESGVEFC
substance,measurement,value
"Mus musculus RAD51DΔ8 (splice variant product, exon 8 excluded) (from UniProt O55230 4-223) (natural protein)",percent of the level of full-length RAD51D (β-galactosidase activity),36%

# Reference: PMC2667185
